Where two headings read alike, the source gives them in different places.
Experiments:
EPCs [1] = experiment: Circulating CFU-EPC in blood; assay type: in vivo, mice; settings: FIG. 20c
HPCs [2] = experiment: In situ perfusion of mouse hind limb, CFU-HPC in perfusate; settings: for HPC mobilization from the bone marrow: FIG. 21b
Description: 24 hours after the last injection, mice underwent perfusion of the right hind limb. […] The hind limb was then perfused for a further 50 minutes to allow collection of b, CFU-HPC; c, CFU-EPC; or d, CFU-SPC; via the femoral vein. CFU-HPC, CFU-EPC, and CFU-SPC are shown as total number of colonies collected in the perfusate. n=5-8 mice per group. Data: means±s.e.m. *: P<0.05, **: P<0.01, ***: P<0.001 between selected groups.
Female BALB/c mice were purchased from Harlan (Oxford, United Kingdom).
(§4) On day 5 following pre-treatment of growth factors, mice were anaesthetized and the femoral artery and vein exposed. The hind limb was isolated by occlusion of the external iliac artery, superficial epigastric and muscular branch. Polyethylene cannulae (Portex, London, UK) were immediately inserted into the femoral artery and vein as previously described (Martin et al., 2003; 2006; Wengner et al., 2008). Perfusion buffer was infused via the arterial cannula and removed from the venous cannula using a Minipuls peristaltic pump (Anachem, Luton, UK). The hind limb was perfused for an initial 2 minutes to remove remaining blood from the vasculature and then perfused for a further 60 min with vehicle alone or the CXCR4 antagonist (AMD3100, 0.1 mM), infused over the first 10 minutes using an infusion/withdrawal pump (Harvard Instruments, U.K.).
The perfusate was centrifuged and re-suspended in DMEM+20% FBS. […] Bone marrow, perfusate and lysed blood were then used for assays outlined below to enumerate HPCs (CFU-HPC), EPCs (CFU-EPC), SPCs (CFU-F).
5×10^4 cells were added to Methocult medium (Stem cell technologies) supplemented with specific cytokines and growth factors to enable formation of CFU-HPC. Mobilized cells were incubated for 11 days before quantification. Further characteristics of CFU-HPC colonies were obtained on day 12, namely the mean number of cells in each colony, and the mean colony area. The mean colony area (mm^2) was determined by image analysis using Scion Image analysis program (NIH). The cell number was determined by diluting colonies grown in Methocult into DMEM (to disperse the methylcellulose) and aspirating the colonies into a single cell suspension before obtaining a cell count.
(§5) The total number of colony forming units mobilized was calculated according to the number of colonies per plate×by the total number of leukocytes mobilized/number of cells seeded.

HPCs [3] = experiment: Circulating CFU-HPC in blood; settings: FIG. 20b
Description: a, Experimental protocol. […] 24 hours after the last injection, mice were administered a CXCR4 antagonist (AMD3100 5 mg/kg i.p, closed bars) or vehicle (PBS, open bars). 60 minutes later, blood was taken for analysis of circulating: b, CFU-HPC; c, CFU-EPC; and d, CFU-SPC. CFU-HPC, CFU-EPC, and CFU-SPC are shown as number of colonies per ml blood. n=5-8 mice per group. Data: means±s.e.m. *: P<0.05, **: P<0.01, ***: P<0.001 between selected groups.
(§6) 24 hours after the last injection, mice were administered a CXCR4 antagonist (AMD3100, 5 mg/kg i.p), KC (30 μg/kg i.v.) or vehicle and blood was collected via cardiac puncture 60 minutes later for enumeration of circulating leukocyte, HPC, EPC, and stromal progenitor cell levels.
In some experiments citrated blood was obtained via cardiac bleed and lysed for red blood cells. […] Bone marrow, perfusate and lysed blood were then used for assays outlined below to enumerate HPCs (CFU-HPC), EPCs (CFU-EPC), SPCs (CFU-F).
5×10^4 cells were added to Methocult medium (Stem cell technologies) supplemented with specific cytokines and growth factors to enable formation of CFU-HPC. Mobilized cells were incubated for 11 days before quantification.
as §5

EPCs [4] = experiment: In situ perfusion of mouse hind limb, CFU-EPC in perfusate; assay type: in vivo, mice; settings: for EPC mobilization from the bone marrow: agent alone (CXCR4 antagonist 0.1 mM infused 10 min; G-CSF or VEGF pre-treatment 4 days), FIG. 21c
[5] = test system: mesenchymal stem cells (MSC); experiment: Example 1: MSC mobilisation, hind limb bone marrow perfusion and circulating blood, CFU-MSC assay; assay type: in vivo, mice; settings: perfusate and blood, FIGS. 9-12
Description: 4×10^5 cells were added to 3 ml Mesencult media including supplements (05501 and 05502 Stemcell Technologies). Assay was performed in duplicate.

SPCs [6] = experiment: In situ perfusion of mouse hind limb, CFU-SPC in perfusate; assay type: in vivo, mice; settings: for SPC mobilization from the bone marrow: FIG. 21d
Description: a, overview of procedures set up for identifying the direct mobilization of progenitor cells from the femoral bone marrow. […] 24 hours after the last injection, mice underwent perfusion of the right hind limb. CXCR4 antagonist (AMD3100 0.1 mM, closed bars) or vehicle (PBS, open bars) were then infused directly into the femoral artery for 10 minutes. The hind limb was then perfused for a further 50 minutes to allow collection of b, CFU-HPC; c, CFU-EPC; or d, CFU-SPC; via the femoral vein. CFU-HPC, CFU-EPC, and CFU-SPC are shown as total number of colonies collected in the perfusate. n=5-8 mice per group. Data: means±s.e.m. *: P<0.05, **: P<0.01, ***: P<0.001 between selected groups.
as §6, §4
(§7) The perfusate was centrifuged and re-suspended in DMEM+20% FBS. In some experiments citrated blood was obtained via cardiac bleed and lysed for red blood cells. Bone marrow and perfusate cytospins, and blood smears were stained using DiffQuik for the enumeration of mononuclear cells, eosinophils, and neutrophils. Bone marrow, perfusate and lysed blood were then used for assays outlined below to enumerate HPCs (CFU-HPC), EPCs (CFU-EPC), SPCs (CFU-F).
(§8) 5×10^5 cells were added to Mesencult media including supplements (Stemcell Technologies). Dishes were incubated for 7 days before media was changed, and then incubated for a further 14 days before the enumeration of SPC colonies (CFU-F).
as §5

SPCs [7] = experiment: Circulating CFU-SPC (CFU-F) in blood; settings: agent alone (AMD3100 5 mg/kg i.p., blood at 60 min; G-CSF once daily for 4 days), FIG. 20d
Description: 24 hours after the last injection, mice were administered a CXCR4 antagonist (AMD3100 5 mg/kg i.p, closed bars) or vehicle (PBS, open bars). 60 minutes later, blood was taken for analysis of circulating: b, CFU-HPC; c, CFU-EPC; and d, CFU-SPC. CFU-HPC, CFU-EPC, and CFU-SPC are shown as number of colonies per ml blood. n=5-8 mice per group. Data: means±s.e.m. *: P<0.05, **: P<0.01, ***: P<0.001 between selected groups.
(§9) Female BALB/c mice were purchased from Harlan (Oxford, United Kingdom). […] 24 hours after the last injection, mice were administered a CXCR4 antagonist (AMD3100, 5 mg/kg i.p), KC (30 μg/kg i.v.) or vehicle and blood was collected via cardiac puncture 60 minutes later for enumeration of circulating leukocyte, HPC, EPC, and stromal progenitor cell levels.
The perfusate was centrifuged and re-suspended in DMEM+20% FBS. In some experiments citrated blood was obtained via cardiac bleed and lysed for red blood cells. Bone marrow and perfusate cytospins, and blood smears were stained using DiffQuik for the enumeration of mononuclear cells, eosinophils, and neutrophils. […]
The total number of colony forming units mobilized was calculated according to the number of colonies per plate×by the total number of leukocytes mobilized/number of cells seeded. […]

[8] = test system: haematopoietic progenitor cells (HPC); experiment: Example 1: HPC mobilisation, hind limb bone marrow perfusion and circulating blood, CFU-HPC assay; assay type: in vivo, mice
Description: Assay was performed in duplicate Mobilised cells were maintained in semi-solid methylcellulose cultures for 11 days before quantification of the number of CFU-HPCs.

[9] = test system: endothelial progenitor cells (EPC); experiment: Example 1: EPC mobilisation, hind limb bone marrow perfusion and circulating blood, CFU-EPC assay; settings: for EPC mobilization: perfusate and blood
Description: 24 hours after the last injection, mice were administered a CXCR4 antagonist (AMD3100, 5 mg/kg i.p), or vehicle and blood was collected via cardiac puncture 1 hour later for enumeration of circulating leukocyte, HPC, EPC and MSC levels.
On day 5, mice were anaesthetized with urethane (25% 0.2 ml i.p.) and the femoral artery and vein exposed. The hind limb was isolated by occlusion of the external iliac artery, superficial epigastric and muscular branch with 5/0 braided silk suture. Polyethylene cannulae (0.61 mm OD, Portex, London, UK) were immediately inserted into the femoral artery and vein and tied in place with 5/0 braided silk suture. Perfusion buffer (modified Krebs-Ringer bicarbonate buffer) at 37° C. was infused (0.15 ml/min) via the arterial cannula and removed from the venous cannula using a Minipuls peristaltic pump (Anachem, Luton, UK). The hind limb was perfused for an initial 10 minutes to remove remaining blood from the vasculature and then perfused for a further 60 min with vehicle alone or AMD3100, a CXCR4 antagonist (0.1 mM, Sigma UK) infused over the first 10 minutes using an infusion/withdrawal pump (Harvard Instruments, U.K.).
The perfusate was collected and centrifuged and the cell pellet re-suspended in Dulbecco's modified eagles medium (DMEM) with 20% fetal bovine serum (FBS). A total cell count was performed before the perfusate was lysed for red blood cells, re-suspended again in DMEM (20% FBS) and used for assays outlined below to enumerate haematopoietic progenitor cells (CFU-HPC), endothelial progenitor cells (CFU-EPC), and leukocyte populations.
In some experiments blood was taken to enumerate HPCs, EPCs and leukocytes. A total cell count was performed on citrated blood before being lysed for red blood cells and re-suspended in DMEM (20% FBS).
Assay was performed in duplicate. Dishes were incubated for 7 days before media was changed, and then incubated for a further 14 days before the enumeration of late outgrowth endothelial progenitor cells. Early outgrowth endothelial progenitor cells were enumerated on day 5.
In each of the above assays, the total number of colony forming units mobilised is calculated according to the number of colonies per plate×by the total number of leukocytes mobilized/number of cells seeded.
Mice were anaesthetised and the femoral artery and vein was cannulated such that the femoral bone marrow could be perfused (Martin et al, (2006) Br. J. Haem. 134: 326-329). […]
Mice were injected i.p. with the CXCR4 antagonist, AMD3100, (or vehicle control) and 1 h later the mice were killed. Blood was collected by cardiac puncture and stem cell numbers in the blood were determined. […]

HPCs [10] = settings: cited from earlier work
neutrophils = experiment: Leukocyte counts of bone marrow; assay type: in vivo, mice; settings: treated 4 days, compared to controls, FIG. 24f
Description: 24 hours later these mice underwent perfusion of the right hind limb. CXCR4 antagonist (AMD3100 0.1 mM, closed bars) or vehicle (PBS, open bars) were then infused directly into the femoral artery for 10 minutes. The hind limb was then perfused for a further 50 minutes to allow collection of a, neutrophils via the femoral vein. […] The hind limb was again perfused for a further 50 minutes to allow b, collection of neutrophils.
The perfusate was centrifuged and re-suspended in DMEM+20% FBS. […] Bone marrow and perfusate cytospins, and blood smears were stained using DiffQuik for the enumeration of mononuclear cells, eosinophils, and neutrophils.

HPCs and MSCs = settings: Ripa et al. (2007) Circulation 116; cited from earlier work
CD34^+ VEGFR2^+ EPCs = experiment: PI staining, cell cycle status of CD34+ VEGFR2+ EPCs; assay type: in vivo, mice; settings: treated 4 days, FIG. 25d
Description: (§1) For flow cytometric analysis, cells were re-suspended in FACS buffer. To identify neutrophils in the bone marrow, surface expression of the granulocyte marker Ly-6G/Ly6C (Gr-1) was determined. Neutrophils were identified as Gr-1^high positive cells with a characteristic high side scatter profile. HPCs residing in the BM were selected as being negative for lineage (Lin^−) markers: CD3e, CD11b, CD45R, Ly-76, and Gr-1 and positive for Sca-1 (Lin^− Sca-1^+ cells) (Gerber et al., 2002; Uchida, et al., 1997). EPCs residing in the BM were selected as being positive for both CD34 and VEGFR2 (CD34^+ VEGFR2^+ cells) (Asahara et al., 1997; Yoon et al., 2005). […] Samples were then washed and then quantified on a FACSAria cell sorter (BD Biosciences, Oxford, United Kingdom) and analysed using FACSDiva software.
(§2) Lin^− Sca-1^+ cells and CD34^+ VEGFR2^+ cells were analysed to determine their cell cycling status using a propidium iodide (PI) stain. […] A dotplot of PI-Width against PI-Area was recorded. Aggregates of cells were detected as cells having a larger PI-W profile and were not included in the gate. […] To calculate the percentage of cells undergoing active cell cycling, a marker was set to exclude the G0/G1 peak and the percentage of cells in S/G2/M was calculated.

EPCs [11] = experiment: In vitro chemotaxis of bone marrow EPCs towards SDF-1α; assay type: cell-based; settings: bone marrow cells of mice treated 4 days; 30 nM SDF-1α, FIG. 23e, 23g
Description: (§3) Bone marrow was aspirated on day 5 and harvested cells were used to determine a, SDF-1α levels in bone marrow supernatant as determined by ELISA; b, % of bone marrow Lin^− Sca-1^+ cells expressing CXCR4; and c, % of bone marrow CD34^+ VEGFR2^+ cells expressing CXCR4. Harvested cells were also utilized in the following chemotaxis assays: d, number of HPCs; and e, EPCs undergoing chemotaxis towards 30 nM SDF-1α. Cells taken from bone marrow of mice treated with G-CSF (closed bars) or vehicle (PBS, open bars). f, number of HPCs; and g, EPCs undergoing chemotaxis towards 30 nM SDF-1α.

SDF-1α = SDF-1α ELISA on bone marrow supernatants; assay type: in vivo, mice; settings: treated once daily for 4 days, FIG. 23a
Description: as §3
Supernatant from bone marrow aspirates was analyzed for SDF-1α content as per the recommended protocol for the capture and detection antibody (MAB350 and BAF310 respectively. RnD systems).

[12] = Total number of cells in the femurs; assay type: in vivo; settings: treated over 4 days; not significantly different compared to control mice
Description: (§10) 24 hours after the last injection, bone marrow was aspirated for the enumeration of a, CFU-HPC bone marrow frequency; b, CFU-EPC bone marrow frequency; and c, CFU-SPC bone marrow frequency.
as §6, §7

SPCs [13] = experiment: CFU-SPC bone marrow frequency; assay type: in vivo, mice; settings: treated over 4 days, compared to controls, FIG. 22c
Description: as §10, §9, §7, §8

HPCs [14] = experiment: In vitro chemotaxis of bone marrow HPCs towards SDF-1α; assay type: cell-based; settings: bone marrow cells of mice treated 4 days; 30 nM SDF-1α, FIG. 23d, 23f
Description: as §3

CXCR4 = experiment: Flow cytometry of CXCR4 expression on bone marrow HPCs and EPCs; assay type: in vivo, mice; settings: treated 4 days
Description: as §3
For flow cytometric analysis, cells were re-suspended in FACS buffer. To identify neutrophils in the bone marrow, surface expression of the granulocyte marker Ly-6G/Ly6C (Gr-1) was determined. Neutrophils were identified as Gr-1^high positive cells with a characteristic high side scatter profile. HPCs residing in the BM were selected as being negative for lineage (Lin^−) markers: CD3e, CD11b, CD45R, Ly-76, and Gr-1 and positive for Sca-1 (Lin^− Sca-1^+ cells) (Gerber et al., 2002; Uchida, et al., 1997). EPCs residing in the BM were selected as being positive for both CD34 and VEGFR2 (CD34^+ VEGFR2^+ cells) (Asahara et al., 1997; Yoon et al., 2005). Furthermore, neutrophils were stained for the surface expression of CXCR2, whilst Lin^− Sca-1^+ cells and CD34^+ VEGFR2^+ cells were stained for the cell surface expression of CXCR4. Samples were then washed and then quantified on a FACSAria cell sorter (BD Biosciences, Oxford, United Kingdom) and analysed using FACSDiva software.

EPCs [15] = experiment: CFU-EPC bone marrow frequency; assay type: in vivo, mice; settings: treated over 4 days, compared to controls, FIG. 22b
Lin^− Sca-1^+ HPCs = experiment: PI staining, cell cycle status of Lin- Sca-1+ HPCs; assay type: in vivo, mice; settings: treated 4 days, FIG. 25c
Description: as §1, §2

[16] = agent alone (AMD3100 5 mg/kg i.p., blood at 60 min; G-CSF or VEGF once daily for 4 days)
[17] = agent alone (CXCR4 antagonist 0.1 mM infused 10 min; G-CSF or VEGF pre-treatment 4 days), perfusate over 1 hour
[18] = agent alone (CXCR4 antagonist 0.1 mM infused 10 min; G-CSF or VEGF pre-treatment 4 days)
[19] = growth factor pre-treatment 4 days, then CXCR4 antagonist infused

c1cc(CN2CCCNCCNCCCNCC2)ccc1CN1CCCNCCNCCCNCC1 [AMD3100, reference compound]
circulating numbers of EPCs (EPCs [1]; [16]): increased circulating numbers of HPCs and EPCs | HPC mobilization from the bone marrow (HPCs [2]; [17]): HPCs and EPCs, but not SPCs were mobilized | circulating numbers of HPCs (HPCs [3]; [16]): increased circulating numbers of HPCs and EPCs | EPC mobilization from the bone marrow (EPCs [4]): HPCs and EPCs, but not SPCs were mobilized | MSC mobilization ([5]; agent alone): does not mobilize MSCs | SPC mobilization from the bone marrow (SPCs [6]; [18]): HPCs and EPCs, but not SPCs were mobilized | circulating SPCs (SPCs [7]): SPCs were not detected in the blood | HPCs mobilised (number) ([8]; AMD3100 alone, 0.1 mM infused into hind limb, perfusate, FIG. 3): about 4000 | EPCs mobilised (number) ([9]; AMD3100 alone, 0.1 mM infused into hind limb, perfusate, FIG. 5): ~400 | EPC mobilization ([9]; agent alone, FIGS. 5 and 6): stimulates the mobilization of EPCs | circulating numbers of HPCs (HPCs [10]; AMD3100 alone, mice and humans): stimulates a rapid rise in circulating numbers of HPCs in both mice and humans

B1: G-CSF: Granulocyte-colony stimulating factor, recombinant murine cytokine from PeproTech (protein, UniProt P09920 31-208, looked up)
Granulocyte …: VPLVTVSALPPSLPLPRSFLLKSLEQVRKIQASGSVLLEQLCATYKLCHPEELVLLGHSLGIPKASLSGCSSQALQQTQCLSQLHSGLCLYQGLLQALSGISPALAPTLDLLQLDVANFATTIWQQMENLGVAPTVQPTQSAMPAFTSAFQRRAGGVLAISYLQGFLETARLALHHLA
circulating numbers of EPCs (EPCs [1]; growth factor pre-treatment over 4 days, then CXCR4 antagonist AMD3100 5 mg/kg i.p.): no such synergism (or even additive effect) was apparent for EPC mobilization | HPC mobilization from the bone marrow (HPCs [2]; [17]): enhanced the basal rate of HPC and EPC egress from the bone marrow | HPC mobilization, acute administration (HPCs [2]; growth factor (50 nM) infused into femoral artery for 10 minutes, alone, FIG. 31a): mobilized both HPCs and EPCs | HPC mobilization from the bone marrow (HPCs [2]; [19]): synergistic mobilization of HPCs | numbers of neutrophils in the bone marrow (neutrophils): increased numbers of neutrophils in the bone marrow | circulating numbers of HPCs (HPCs [3]; [16]): increased circulating numbers of HPCs | circulating numbers of HPCs (HPCs [3]; growth factor pre-treatment over 4 days, then CXCR4 antagonist AMD3100 5 mg/kg i.p., blood at 60 min): synergistically enhanced circulating numbers of HPCs | EPC mobilization from the bone marrow (EPCs [4]): enhanced the basal rate of HPC and EPC egress from the bone marrow | EPC mobilization, acute administration (EPCs [4]; growth factor (50 nM) infused into femoral artery for 10 minutes, alone, FIG. 31b): mobilized both HPCs and EPCs | MSC mobilization ([5]; G-CSF or VEGF 2.5 μg on 4 consecutive days, then AMD3100): does not mobilize MSCs | MSC mobilization ([5]; agent alone): does not mobilize MSCs | stem cell mobilisation (HPCs and MSCs): mobilises HPCs but causes a decrease in MSCs | percentage of CD34+ VEGFR2+ EPCs in S/G2/M phase of the cell-cycle (CD34^+ VEGFR2^+ EPCs): does not stimulate entry | EPC chemotaxis towards SDF-1α (EPCs [11]): further increased migration of HPCs and EPCs to SDF-1α | SDF-1α levels in bone marrow supernatant (SDF-1α): significant reduction in levels of SDF-1α | total number of cells in the femurs [12]: 1.41±0.28×10^7 cells/femur | frequency/number of SPCs in the bone marrow (SPCs [13]): an increase in the number of SPCs | HPC chemotaxis towards SDF-1α (HPCs [14]): further increased migration of HPCs and EPCs to SDF-1α | CXCR4 expression on EPCs (CXCR4; CD34+ VEGFR2+ bone marrow cells, FIG. 23c): the expression of CXCR4 on EPCs was unchanged | CXCR4 expression on HPCs (CXCR4; Lin- Sca-1+ bone marrow cells, FIG. 23b): significant reduction | SPC mobilization from the bone marrow (SPCs [6]; [18]): did not lead to the mobilization of SPCs | SPC mobilization, acute administration (SPCs [6]; growth factor (50 nM) infused acutely, alone or in combination with CXCR4 antagonist, FIG. 31c): neither growth factor, when administered acutely or in combination with the CXCR4 antagonist led to mobilization of SPCs | SPC mobilization from the bone marrow (SPCs [6]; [19]): no SPCs were mobilized | circulating SPCs (SPCs [7]): no SPCs were detected | HPC mobilization ([8]; G-CSF or VEGF 2.5 μg on 4 consecutive days, then AMD3100 (0.1 mM infusion or 5 mg/kg i.p.), perfusate and blood, FIGS. 1-4): acts synergistically with AMD3100 to mobilize HPCs | frequency/number of EPCs in the bone marrow (EPCs [15]): significant reduction in the number of bone marrow EPCs | percentage of Lin- Sca-1+ HPCs in S/G2/M phase of the cell-cycle (Lin^− Sca-1^+ HPCs): does not stimulate entry | EPC mobilization ([9]; G-CSF or VEGF 2.5 μg on 4 consecutive days, then AMD3100, FIGS. 5-8): not enhanced | HPC mobilization (HPCs [10]; chronic G-CSF treatment combined with acute treatment with AMD3100): synergistic effect

— patent publication US8440199B2, “Methods for mobilizing mesenchymal stem cells in a patient” (Imperial Innovations Limited, priority 2007, dated 2013)
